1 substance from patent CN116472284A can be followed below.

This experiment deals with SARS-CoV-2 spike on ZsGreen SARS-CoV-2-pseudotyped lentivirus (SARS-CoV-2) (UniProt P0DTC2). Description: cell-based or functional assay.

For the substance “Nb6-tri (trivalent Nb6 with two 20 amino acid linkers) (VHH)”, the IC50, inhibition of SARS-CoV-2 pseudotyped lentivirus infection is 1.2 nM and the fold gain of inhibitory activity against monovalent Nb6, pseudovirus was 2000 fold.
